Laboratory results reported in patent publication US20200362018.

T1: S. cerevisiae (Yeast) 20S proteasome, FLAG-tagged (Pre1), P22141
T1 sequence (P22141 1-198, looked up): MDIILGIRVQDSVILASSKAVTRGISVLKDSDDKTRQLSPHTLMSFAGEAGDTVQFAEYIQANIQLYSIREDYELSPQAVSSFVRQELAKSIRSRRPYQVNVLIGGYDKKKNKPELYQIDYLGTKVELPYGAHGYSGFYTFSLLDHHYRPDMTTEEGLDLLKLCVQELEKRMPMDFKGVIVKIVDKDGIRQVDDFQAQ

T2: T. acidophilum (Archaea) 20S proteasome, P25156
T2 chain 1: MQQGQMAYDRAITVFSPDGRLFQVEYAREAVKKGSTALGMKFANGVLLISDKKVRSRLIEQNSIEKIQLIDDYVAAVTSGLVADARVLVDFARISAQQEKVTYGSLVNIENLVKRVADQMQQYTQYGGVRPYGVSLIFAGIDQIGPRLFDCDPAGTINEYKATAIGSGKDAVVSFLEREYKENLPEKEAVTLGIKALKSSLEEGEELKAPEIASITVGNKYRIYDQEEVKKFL
T2 chain 2: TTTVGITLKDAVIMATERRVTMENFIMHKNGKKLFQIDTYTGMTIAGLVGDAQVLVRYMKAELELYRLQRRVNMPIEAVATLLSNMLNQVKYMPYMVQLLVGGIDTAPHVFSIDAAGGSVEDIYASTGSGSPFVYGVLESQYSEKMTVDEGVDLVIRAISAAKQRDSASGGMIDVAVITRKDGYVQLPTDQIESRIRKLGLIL

B1: human CBR3 (recombinant, His tag removed) (protein)
chain: MSSCSRVALVTGANRGIGLAIARELCRQFSGDVVLTARDVARGQAAVQQLQAEGLSPRFHQLDIDDLQSIRALRDFLRKEYGGLNVLVNNAAVAFKSDDPMPFDIKAEMTLKTNFFATRNMCNELLPIMKPHGRVVNISSLQCLRAFENCSEDLQERFHSETLTEGDLVDLMKKFVEDTKNEVHEREGWPNSPYGVSKLGVTVLSRILARRLDEKRKADRILVNACCPGPVKTDMDGKDSIRTVEEGAETPVYLALLPPDATEPQGQLVHDKVVQNW
B2: human NQO2 (recombinant, His-TEV fragment removed) (protein)
chain: MAGKKVLIVYAHQEPKSFNGSLKNVAVDELSRQGCTVTVSDLYAMNLEPRATDKDITGTLSNPEVFNYGVETHEAYKQRSLASDITDEQKKVREADLVIFQFPLYWFSVPAILKGWMDRVLCQGFAFDIPGFYDSGLLQGKLALLSVTTGGTAEMYTKTGVNGDSRYFLWPLQHGTLHFCGFKVLAPQISFAPEIASEEERKGMVAAWSQRLQTIWKEEPIPCTAHWHFGQ
B3: human RBBP9 with a C-terminal 6His tag (protein)
chain: MASPSKAVIVPGNGGGDVTTHGWYGWVKKELEKIPGFQCLAKNMPDPITARESIWLPFMETELHCDEKTIIIGHSSGAIAAMRYAETHRVYAIVLVSAYTSDLGDENERASGYFTRPWQWEKIKANCPYIVQFGSTDDPFLPWKEQQEVADRLETKLHKFTDCGHFQNTEFHELITVVKSLLKVPA
B4: human PGDH with a C-terminal 6His tag (protein)
chain: MHVNGKVALVTGAAQGIGRAFAEALLLKGAKVALVDWNLEAGVQCKAALDEQFEPQKTLFIQCDVADQQQLRDTFRKVVDHFGRLDILVNNAGVNNEKNWEKTLQINLVSVISGTYLGLDYMSKQNGGEGGIIINMSSLAGLMPVAQQPVYCASKHGIVGFTRSAALAANLMNSGVRLNAICPGFVNTAILESIEKEENMGQYIEYKDHIKDMIKYYGILDPPLIANGLITLIEDDALNGAIMKITTSKGIHFQDYDTTPFQAKTQ

Tests used:
[1] = target: T1, S. cerevisiae (Yeast) 20S proteasome, …
[2] = target: R. norvegicus (Mammalian) 20S proteasome purified from rat liver
[3] = target: T2, T. acidophilum (Archaea) 20S …
[4] = target: 20S proteasome (source not stated for the experiment)

Protein | degradation of α-synuclein by the 20S proteasome, SDS-PAGE time course [1] | in vitro degradation of oxidized calmodulin by purified mammalian 20S proteasomes [2] | in vitro degradation of α-synuclein by purified mammalian 20S proteasomes [2] | degradation of α-synuclein by the 20S proteasome, SDS-PAGE time course [3] | time-dependent degradation of α-synuclein by the 20S proteasome, SDS-PAGE with image analysis [4]
B1 | Human CBR3 inhibited 20S proteasomes from all tested species. | OxCam degradation was inhibited by all the candidates | the majority of the CCRs successfully inhibited the degradation of α-synuclein, with the exception of RBBP9 and HRas | Human CBR3 inhibited 20S proteasomes from all tested species. | 
B2 |  | OxCam degradation was inhibited by all the candidates | the majority of the CCRs successfully inhibited the degradation of α-synuclein, with the exception of RBBP9 and HRas |  | In the presence of NQO2, CBR3, PGDH, NRas, KRas and RhoA, however, there was a marked decrease in the degradation rate.
B3 |  | OxCam degradation was inhibited by all the candidates |  |  | 
B4 |  | OxCam degradation was inhibited by all the candidates | the majority of the CCRs successfully inhibited the degradation of α-synuclein, with the exception of RBBP9 and HRas |  | 
